Source: patent publication US20050260634A1

How the values were obtained:
c-Myc [1] = target: c-Myc (UniProt P01106); experiment: flow cytometry, fixed and permeabilized HCT15 cells, negative control
c-Myc [2] = target: c-Myc (UniProt P01106); experiment: flow cytometry, fixed and permeabilized JEG3 cells, negative control
c-Myc [3] = target: c-Myc (UniProt P01106); experiment: flow cytometry, fixed and permeabilized HCT116 cells, negative control (row shifted one column to the left)

UniProt P01106, sequence (P01106 whole entry): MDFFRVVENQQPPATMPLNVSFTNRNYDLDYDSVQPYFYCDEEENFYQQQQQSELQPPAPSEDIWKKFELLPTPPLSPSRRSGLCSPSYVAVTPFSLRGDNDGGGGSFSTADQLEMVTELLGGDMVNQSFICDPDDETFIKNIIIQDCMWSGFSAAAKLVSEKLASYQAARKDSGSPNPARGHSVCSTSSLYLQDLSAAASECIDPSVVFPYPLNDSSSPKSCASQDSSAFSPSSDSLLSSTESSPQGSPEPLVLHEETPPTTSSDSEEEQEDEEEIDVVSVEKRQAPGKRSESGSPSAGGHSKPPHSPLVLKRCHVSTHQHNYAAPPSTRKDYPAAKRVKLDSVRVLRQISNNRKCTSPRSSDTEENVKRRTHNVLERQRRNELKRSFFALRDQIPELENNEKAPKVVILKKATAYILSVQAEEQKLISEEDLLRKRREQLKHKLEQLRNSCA

**Q.** “non-immunized rabbit immunoglobulins (antibody)” was tested. Which percentage of positive cells above the flow cytometry threshold (c-Myc [1]) did it give?
**A.** 1.6%

**Q.** And the percentage of positive cells above the flow cytometry threshold (c-Myc [2])?
**A.** 1.1%

**Q.** What about the percentage of positive cells above the flow cytometry threshold (c-Myc [3]) of the same substance?
**A.** 1.5%
